Measured values reported in IntAct's records for PubMed 19879842.
Substitutions are numbered along the chain they refer to.

B1: Dual specificity tyrosine-phosphorylation-regulated kinase mbk-2 (Caenorhabditis elegans), Q9XTF3-2 (parent)
chain: MTLFEPSTSGNRMGYRGSSNSSSGVGSGGSGSLMTQSIGGPNKHLSASHSTLNTASTHDMMHSKIPKSPSNESLSRSHTSSSGGSQGGHNSNSGSNSGFRPEDAVQTFGAKLVPFEKNEIYNYTRVFFVGSHAKKQAGVIGGANNGGYDDENGSYQLVVHDHIAYRYEVLKVIGKGSFGQVIKAFDHKYQQYVALKLVRNEKRFHRQADEEIRILDHLRRQDSDGTHNIIHMLDYFNFRNHKCITFELLSINLYELIKRNKFQGFSLMLVRKFAYSMLLCLDLLQKNRLIHCDLKPENVLLKQQGRSGIKVIDFGSSCFDDQRIYTYIQSRFYRAPEVILGTKYGMPIDMWSLGCILAELLTGYPLLPGEDENDQLALIIELLGMPPPKSLETAKRARTFITSKGYPRYCTATSMPDGSVVLAGARSKRGKMRGPPASRSWSTALKNMGDELFVDFLKRCLDWDPETRMTPAQALKHKWLRRRLPNPPRDGLESMGGLADHEVCFIIF
partner: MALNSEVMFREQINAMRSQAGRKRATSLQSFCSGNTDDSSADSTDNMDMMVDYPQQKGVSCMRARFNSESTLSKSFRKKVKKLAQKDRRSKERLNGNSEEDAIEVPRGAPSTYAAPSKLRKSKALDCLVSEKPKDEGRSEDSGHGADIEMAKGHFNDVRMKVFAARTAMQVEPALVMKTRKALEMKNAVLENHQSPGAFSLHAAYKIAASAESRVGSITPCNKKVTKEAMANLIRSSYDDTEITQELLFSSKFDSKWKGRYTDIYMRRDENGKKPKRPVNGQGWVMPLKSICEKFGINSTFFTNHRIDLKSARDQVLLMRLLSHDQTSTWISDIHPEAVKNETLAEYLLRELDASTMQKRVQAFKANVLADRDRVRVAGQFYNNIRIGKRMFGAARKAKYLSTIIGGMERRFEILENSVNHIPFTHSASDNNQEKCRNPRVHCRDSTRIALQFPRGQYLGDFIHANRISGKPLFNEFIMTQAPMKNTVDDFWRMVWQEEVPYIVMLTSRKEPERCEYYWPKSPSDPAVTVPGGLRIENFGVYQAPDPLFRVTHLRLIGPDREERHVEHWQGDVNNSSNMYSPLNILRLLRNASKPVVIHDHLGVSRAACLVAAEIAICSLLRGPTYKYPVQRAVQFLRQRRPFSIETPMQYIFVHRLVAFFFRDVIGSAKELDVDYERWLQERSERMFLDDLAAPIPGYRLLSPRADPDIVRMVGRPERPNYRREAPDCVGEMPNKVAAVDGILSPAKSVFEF
B2: Dual specificity tyrosine-phosphorylation-regulated kinase mbk-2 (Caenorhabditis elegans), Q9XTF3-2 (parent)
chain: B1 chain
partner: B1 partner with S139R, D157N, S255T, L344M, R444K, A739T

Variants of: B1
Settings: with egg5_caeel egg-5, O61789

| effect of a mutation on the interaction | Variant |
| --- | --- |
| decreasing interaction | Y325F;Y327F |
| decreasing interaction | K196R |

Variants of: B2
Settings: with egg4_caeel egg-4, O01767

| effect of a mutation on the interaction | Variant |
| --- | --- |
| decreasing interaction | Y325F;Y327F |
| decreasing interaction | K196R |
